Experimental data published in patent publication US20230002496A1 (STAIDSON BEIJING BIOPHARMACEUTICALS, published 2023).
Changes are numbered by the printed parent chain.

B1: E35-scFv LN93I (scFv, V domains shown)
VH: QMQLVQSGAEVKKPGASVKVSCKVSGYTLTELSIHWVRQAPGKGLEWMGGFDPEDGETIYAQKFQGRVTMTGDTSTDTAYLELSSLRSEDTALYYCATGRYTSLATTYGFDYWGQGTLVTVSS
VL: EIVMTQSPATLSLSPGERATLSCRASQSVSSYLAWYQQKPGQAPRLLIYGASSRATGIPDRFSGSGSGTDFTLTISRLEPEDFAVYYCQQYDIWPYTFGQGTKLEIK
B2: E35-scFv HE31D (scFv, V domains shown)
VH: B1 VH with E31D
VL: B1 VL with I93N
B3: E35-scFv LN93K (scFv, V domains shown)
VH: B1 VH
VL: B1 VL with I93K
B4: E35-scFv HE31V (scFv, V domains shown)
VH: B1 VH with E31V
VL: B1 VL with I93N
B5: E35-scFv HE31M (scFv, V domains shown)
VH: B1 VH with E31M
VL: B1 VL with I93N
B6: E35-scFv HE31S (scFv, V domains shown)
VH: B1 VH with E31S
VL: B1 VL with I93N
B7: E35-scFv HE31K (scFv, V domains shown)
VH: B1 VH with E31K
VL: B1 VL with I93N
B8: E35-scFv LN93P (scFv, V domains shown)
VH: B1 VH
VL: B1 VL with I93P
B9: E35-scFv LN93H (scFv, V domains shown)
VH: B1 VH
VL: B1 VL with I93H
B10: E35-scFv HE31R (scFv, V domains shown)
VH: B1 VH with E31R
VL: B1 VL with I93N
B11: E35-scFv HE31A (scFv, V domains shown)
VH: B1 VH with E31A
VL: B1 VL with I93N
B12: E35-scFv HE31Y (scFv, V domains shown)
VH: B1 VH with E31Y
VL: B1 VL with I93N
B13: E35-scFv LN93L (scFv, V domains shown)
VH: B1 VH
VL: B1 VL with I93L
B14: E35-scFv LN93R (scFv, V domains shown)
VH: B1 VH
VL: B1 VL with I93R
B15: E35-scFv HE31W (scFv, V domains shown)
VH: B1 VH with E31W
VL: B1 VL with I93N
B16: E35-scFv HE31F (scFv, V domains shown)
VH: B1 VH with E31F
VL: B1 VL with I93N
B17: E35-scFv HE31P (scFv, V domains shown)
VH: B1 VH with E31P
VL: B1 VL with I93N

What follows are binders tested against T1, human GM-CSFRα, full length on cells (human, UniProt P15509 23-400) (assay: cell-based or functional assay).
T1 sequence: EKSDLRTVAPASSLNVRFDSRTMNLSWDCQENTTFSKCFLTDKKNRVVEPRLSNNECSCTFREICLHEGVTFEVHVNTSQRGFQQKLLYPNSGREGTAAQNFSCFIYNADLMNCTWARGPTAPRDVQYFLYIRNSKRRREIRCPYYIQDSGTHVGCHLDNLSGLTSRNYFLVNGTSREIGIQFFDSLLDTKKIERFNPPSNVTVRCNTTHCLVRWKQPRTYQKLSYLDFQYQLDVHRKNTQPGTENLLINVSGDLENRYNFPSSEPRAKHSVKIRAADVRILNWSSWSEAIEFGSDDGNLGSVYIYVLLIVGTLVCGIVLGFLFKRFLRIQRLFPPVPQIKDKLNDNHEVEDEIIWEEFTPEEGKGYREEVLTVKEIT

| Binder | IC50, TF-1 cell proliferation |
| --- | --- |
| B1 | 0.33 µg/mL |
| B2 | 0.13 µg/mL |
| B3 | 0.78 µg/mL |
| B4 | 0.22 µg/mL |
| B5 | 0.13 µg/mL |
| B6 | 0.14 µg/mL |
| B7 | 0.23 µg/mL |
| B8 | 0.66 µg/mL |
| B9 | 0.45 µg/mL |
| B10 | 0.31 µg/mL |
| B11 | 0.21 µg/mL |
| B12 | 0.2 µg/mL |
| B13 | 0.33 µg/mL |
| B14 | 0.6 µg/mL |
| B15 | 0.26 µg/mL |
| B16 | 0.18 µg/mL |
| B17 | 0.17 µg/mL |
